Results as given in article PMC4210448.

Target: Map205 (UniProt P23226)
Assay: PrA-Map205 affinity purification, GFP blot
Conditions: reference: Polo WT-GFP with Aurora B–Myc; sites T182

Polo (from UniProt P52304) Polo T182A-GFP with Aurora B–Myc
binding against the reference: stronger
